{
  "source": "the DeepSol protein solubility set",
  "data": [
    {"experiment": "soluble on expression in E. coli; label from the status in PepcDB or PDB records", "values": [
      {"sequence": "MFQAINASGSGLTTARKWMQVTSNNIVNANTPAAPGADLYERRSVVLESNNSFASMLDGAPTNGVKIKSIEADKTENLVYDPTHPHANEEGYVRYPNIDVTAEMTNVMVAQKMYEANTSVLNANKKMLDKDLEIGRG", "soluble on expression in E. coli": "not soluble"},
      {"sequence": "MFRMPIVTMERVDSFSAAHRLHSEKLSDAENKETFGKCNNSNGHGHNYVWKVKLRGEVDPTSGMVYDLAKLKKEMSLVLDTVDHRNLDKDVEFFKTTVSTSENVAIYMFEKLKSVMSNPSVLYKVTIEETPKNIFTYKGC", "soluble on expression in E. coli": "not soluble"},
      {"sequence": "MFSQAQFNVTMAEEDRWKQWYPNMEMIVNNKGPKLIFPELNFNITGLEEKSRYVVLLSIEKYDNIRYGYRNGKWGPSKVRHATKKEQEIKYFLHPDGTKLGKELMKETIKFDTVRITNHKKFMDKDNVFFVETMHKYVPVLTVKNITNVESANHSMRMEVAQFFPVTVYNQESIGNWKSKFHKNSTYGNRLDGGNKRKNTDSSEERTSKRSKNETEIAVSDILQVASQSENYNESTNSGRLQNEISSSIHQFPSTSYQNQYPHAYPTVNTPPIYVQQFTALFDEIHNQFDPKTKQNRVAKNVQYLSSVPQFAINQKENIHQNAPDYPVSQFPNQYPYGSYPYYYPYFQSSQQFPHLNYSMNNSIYSDSSFQSSFSAENSYFDENGNPIHYPYYSSN", "soluble on expression in E. coli": "not soluble"},
      {"sequence": "MFSYTDTILSIMQRIEVYNEIFKAISKEVQEYGCNQAAHRRGRDTYMFCRNNVNRFFTEEMMFRKNLEPYYDKEATKILLEGLDTYKEGVFFWLEALSESCQVTDELKYQLGIRQKESSYLLINQACKEACEGIQSAHSVHKM", "soluble on expression in E. coli": "not soluble"},
      {"sequence": "MFVAEHEVEIRYAETDQMGVVYHSNYLVWLELGRTKLIQDLGFSYVEMEKEGIISPVLDLQISYRKAMRYGEKASVKTWVDTVSPLRVVYGYEIYNGDGELCITASTTNICAKKEGFRPVSFKKLYPEWYAKYEEIKKK", "soluble on expression in E. coli": "not soluble"},
      {"sequence": "MFVIGIPTLNEADNISRLVKQIDEYAVNLGKEIIIINSDSKSTDGTPQIFLETKTYNTKVSIVSEAKGKGYNVRNIFEYAINHVPNFSGLILIDGDVVSMKKMWLEKMFIAIESGNDLIIPNYARKSFEGNATNHFIYPMLVKIFKRDMPYQCISGDFGFSRGLIKDLTLKCNWHKYTLGYGIDIFLTLTAILKSYKIKEIDLQSKIHKKSFEKIEKIFLEVSQSFFETINDNSLNQDKLRLNINFESHSRQFIKSSDILSSNDIENLKLRALFLLQEEKQYLHGLSEVEWDGILSNTINNIYRYSSEEHSLYLLPLYLLRVYNYLKYN", "soluble on expression in E. coli": "not soluble"},
      {"sequence": "MFYEKIQTPAYILEEDKLRKNCELLASVGEKSGAKVLLALKGFAFSGAMKIVGEYLKGCTCSGLWEAKFAKEYMDKEIHTYSPAFKEDEIGEIASLSHHIVFNSLAQFHKFQAKTQKNSLGLRCNVEFSLAPKELYNPCGRYSRLGIRAKDFENVDLSTIEGLHFHALCEESAGALEAVLKVFEEKFGKWIGQMKWVNFGGGHHITKKGYDVEKLIALCKNFSDKYGVQVYLEPGEAVGWQTGNLVASVVDIIENEKQIAILDTSSEAHMPDTIIMPYTSEVLNARILATRENEKISDLKESEFSYLLTGNTCLAGDVMGEYAFDKKLKIGDKIVFLDQIHYTIVKNTTFNGIRLPNLMLLNAKNELQMIREFSYKDYSLRN", "soluble on expression in E. coli": "not soluble"},
      {"sequence": "MFYLGIDAGGTKTSFMLINHLGEVLSTYTSGTCHIHQVGFDGFRKGIQEGIDKICSEINICRDDLSYSFLGLPAYGENESEKLKMNSIIAEILGENKFSCGNDVEVALAGSLAGQPGICIILGTGAIASGITNDLKTARTSGWGYICGDEGSGYWIAKKGVEIFGKQSDHRLERTALYDIFKNELKLENDFDLIFLIKDKYKQDRTKVANLAMLVYKAALKGDKYALDIYRQAAKECLLMVNGLTNQLEFTGVLNISYSGSVFNSKEFILDPLRNYLQDNYTAFNLTAPILPPIKGAALNALKLHKGEIPEGVVHNLAKEPKEILVLEHHHHHH", "soluble on expression in E. coli": "not soluble"},
      {"sequence": "MFYTTDTNQHGLPHDPFKAIVAPRPIGWIGSKGREGVLNLSPYSFFNAISDRPKLVMFSSSGRKDSLRNVEETGVFTANLVSRHLVDRMNASSAPVAYDVDEFALAGLTAVDGRVVDAPFVREALAVLECRATQIQQLTDIEGKPTDSWMVIGQVMAIHIGETIIRDGRIDMGLARPVARMGYMDYCDGGSDVFQLQRPSAAPSV", "soluble on expression in E. coli": "soluble"}
    ]}
  ]
}
